Test results from patent US20090018083A1 (ALBERT EINSTEIN SCHOOL OF MEDICINE OF YESHIVA UNIVERSITY, published 2009).
No end group written: not given here.

Tests used:
[1] = target: T1, BCL6-3C BTB domain (human BCL6 residues 5-129 with C8Q/C67R/C84N) (human, UniProt P41182 5-129); experiment: native-gel mobility shift assay
Method: (§1) The mixture was analyzed by non-denaturing polyacrylamide gel electrophoresis (PAGE) and protein bands were visualized with either Coomassie blue staining or silver staining.

PLZF BTB domain [2] = target: T2, PLZF BTB domain (UniProt Q05516 6-126, limits assumed); experiment: SPR
T2 construct: domain: BTB domain; Purified protein; also called BTB^PLZF
T2 sequence (looked up): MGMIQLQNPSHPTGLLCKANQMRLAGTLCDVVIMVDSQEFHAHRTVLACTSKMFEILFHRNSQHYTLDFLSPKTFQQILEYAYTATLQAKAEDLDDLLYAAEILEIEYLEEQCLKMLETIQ
Method: (§2) SPR: Biotinylated corepressor peptides were coupled to streptavidin-coated sensor chips to a density of 800 response units (Biacore 2000). BCL6 or PLZF BTB protein was serially diluted in running buffer (10 mM Hepes, pH 7.4, 150 mM NaCl, 3 mM EDTA, 0.005% v/v surfactant P20) and injected at a flow rate of 5 μL/min.

BCL6-3C BTB domain H116A = BCL6-3C BTB domain H116A (human, UniProt P41182 5-129); experiment: co-purification
Method: (§3) In vitro binding assays. Co-purification: Equimolar amounts of His-tagged thioredoxin-corepressor fusion protein and BCL6 BTB or PLZF BTB domain were combined, incubated for at least two hours, and loaded onto a Ni-NTA spin column (Qiagen). The column was washed three times with 600 μl of wash buffer (200 mM NaCl, 20 mM Tris-HCl pH 8.0, 10 mM imidazole), and bound protein was released with 400 μl of elution buffer (200 mM NaCl, 20 mM Tris-HCl pH 8.0, 300 mM imidazole). Samples were analyzed on 10-20% SDS-PAGE gels and stained with Coomassie blue.

BCL6-3C BTB domain N21K = BCL6-3C BTB domain N21K (human, UniProt P41182 5-129); experiment: co-purification
Method: as §3

[3] = target: T1, BCL6-3C BTB domain (human BCL6 residues …); experiment: Ni-NTA co-purification with the His-tagged thioredoxin fusion, SDS-PAGE, stained gel
PLZF BTB domain [4] = target: T2, PLZF BTB domain; experiment: ITC
Method: All components were in 150 mM NaCl, 20 mM Hepes pH 7.7, 1 mM TCEP. […] To correct for dilution and mixing effects, a series of control injections was carried out, in which the heat of dilution was measured in blank titrations by injecting the peptide into the buffer.

[5] = target: T1, BCL6-3C BTB domain (human BCL6 residues …); experiment: SPR, biotinylated peptide on streptavidin chip, BCL6-3C BTB domain injected
Method: “N.b.” indicates no detectable binding.
as §2

[6] = target: T1, BCL6-3C BTB domain (human BCL6 residues …); experiment: non-denaturing PAGE mobility shift, constant BTB domain, increasing peptide
Method: as §1

[7] = target: T1, BCL6-3C BTB domain (human BCL6 residues …); experiment: co-purification
Method: as §3

RSEIISTAPASAVAPGP [BCoR peptide with the S507A/W509A/V511A triple mutation]
binding result [1]: no binding

B1: SMRT^1414-1430 peptide, biotinylated, immobilised for SPR (peptide)
peptide: LVATVKEAGRSIHEIPR
modifications: also: biotinylated lysine 8 residues N-terminal to the peptide, not in the given chain
notes: SPR form of the minimal fragment; not shown: N-terminal residues left after TEV cleavage (BirA biotinylation motif, thrombin site)
binding result (PLZF BTB domain [2]): no binding

B2: hexahistidine tagged fusion protein containing BCoR residues 317 to 547 (other, UniProt Q6W2J9 317-547, looked up)
chain: SAKAVTSGLPGDTALLLPPSPRPSPRVHLPTQPAADTYSEFHKHYARISTSPSVALSKPYMTVSSEFPAARLSNGKYPKAPEGGEGAQPVPGHARKTAVQDRKDGSSPPLLEKQTVTKDVTDKPLDLSSKVVDVDASKADHMKKMAPTVLVHSRAGSGLVLSGSEIPKETLSPPGNGCAIYRSEIISTAPSSWVVPGPSPNEENNGKSMSLKNKALDWAIPQQRSSSCPRM
notes: not shown: hexahistidine tagged fusion partner
binding result (BCL6-3C BTB domain H116A): no binding | binding result (BCL6-3C BTB domain N21K): no binding

RSEIISTAPWSSVVPGP [BCoR peptide with the S507W/W509S double mutation]
binding result [1]: no binding

B3: SMRT-BBD with residues 1427-1430 replaced by alanines (EIPR->AAAA) (peptide)
peptide: LVATVKEAGRSIHAAAA
notes: also called AAAA mutant; not shown: N-terminal fusion or tag residues depend on the assay (His-Trx fusion in co-purification, biotinylated tag remnant in SP)
binding result [3]: no binding

B4: SMRT-BBD with the SI to IS substitution at residues 1424-1425 (peptide)
peptide: LVATVKEAGRISHEIPR
notes: The text calls it SMRT-BBD; also called IS mutant; not shown: N-terminal fusion or tag residues depend on the assay (His-Trx fusion in co-purification, biotinylated tag remnant in SP)
binding result [3]: no binding

B5: SMRT^1414-1430 peptide (SMRT-BBD), no additional N-terminal residues (peptide)
peptide: LVATVKEAGRSIHEIPR
notes: Made by thrombin digestion of the fusion protein
binding result (PLZF BTB domain [4]): no binding

B6: SMRT^1417-1441 peptide, biotinylated, immobilised for SPR (peptide, UniProt Q9Y618 1417-1441, looked up)
peptide: TVKEAGRSIHEIPREELRHTPELPL
modifications: also: biotinylated lysine in N-terminal tag residues (not given here)
notes: not shown: N-terminal residues left after TEV cleavage (BirA biotinylation motif, thrombin site)
binding result (PLZF BTB domain [2]): no binding

B7: SMRT^1414-1441 peptide (fragment d), biotinylated, immobilised for SPR (peptide, UniProt Q9Y618 1414-1441, looked up)
peptide: LVATVKEAGRSIHEIPREELRHTPELPL
modifications: also: biotinylated lysine in N-terminal tag residues (not given here)
notes: as for B6
binding result (PLZF BTB domain [2]): no binding | Kd [5]: 15.8 nM

B8: BCoR 498-514 peptide (BCoR BBD) (peptide)
peptide: RSEIISTAPSSWVVPGP
notes: Purified peptide used for co-crystallisation; also called BCoR-BBD peptide; BCoR peptide
binding result [6]: binds

B9: hexahistidine tagged fusion protein containing BCoR residues 112 to 342 (other, UniProt Q6W2J9 112-342, looked up)
chain: LGFSSERNPEMQFKPNTPETVEASAVSGKPPNGFSAIYKTPPGIQKSAVATAEALGLDRPASDKQSPLNINGASYLRLPWVNPYMEGATPAIYPFLDSPNKYSLNMYKALLPQQSYSLAQPLYSPVCTNGERFLYLPPPHYVGPHIPSSLASPMRLSTPSASPAIPPLVHCADKSLPWKMGVSPGNPVDSHAYPHIQNSKQPRVPSAKAVTSGLPGDTALLLPPSPRPSPR
notes: as for B2
binding result [7]: no binding

B10: hexahistidine tagged fusion protein containing BCoR residues 542 to 753 (other, UniProt Q6W2J9 542-753, looked up)
chain: SSCPRMGGTDAVITNVSGSVSSAGRPASASPAPNANADGTKTSRSSVETTPSVIQHVGQPPATPAKHSSSTSSKGAKASNPEPSFKANENGLPPSSIFLSPNEAFRSPPIPYPRSYLPYPAPEGIAVSPLSLHGKGPVYPHPVLLPNGSLFPGHLAPKPGLPYGLPTGRPEFVTYQDALGLGMVHPMLIPHTPIEITKEEKPERRSRSHERA
notes: as for B2
binding result [7]: no binding
